Assay results reported in paper PMC9410881.
One block for each substance: values may come before it.

Key:
[1] = molecular target: Aca10 from Pseudomonas citronellolis (pcAca10), wild type (Pseudomonas citronellolis); assay: SEC-MALS; Superdex 200 Increase 10/300 GL, SEC buffer (20 mM Tris-HCl pH 8.0, 150 mM NaCl), 0.5 ml/min, 20°C; self-association of Aca10
Aca10 D7K variant = assay: SEC-MALS; conditions: parent: 17.39
Aca10 G49Y mutant = assay: SEC-MALS; conditions: parent: 17.39
Aca10 E52R mutant = assay: SEC-MALS; conditions: parent: 17.39

stoichiometry N [1]: 2
Substance: Aca10 from Pseudomonas citronellolis (pcAca10), wild type (natural protein)

other: MALS molecular weight (MW) (Aca10 D7K variant): 17 kDa
Substance: Aca10 from Pseudomonas citronellolis (pcAca10), wild type D7K

other: MALS molecular weight (MW) (Aca10 G49Y mutant): 10.2 kDa
Substance: Aca10 from Pseudomonas citronellolis (pcAca10), wild type G49Y

other: MALS molecular weight (MW) (Aca10 E52R mutant): 14.2 kDa
Substance: Aca10 from Pseudomonas citronellolis (pcAca10), wild type E52R
